Target: the molecule itself
Test: cryo-EM structure; BbZIP in amphipol PMAL-C8 nanoparticles, purified with Cd2+, 20 mM HEPES pH 7.5, 100 mM NaCl; C2 symmetry, 3.05 Å (C1: 3.3 Å)

B1: ZIP-family zinc transporter from Bordetella bronchiseptica (BbZIP) (natural protein, UniProt A0A0H3LM39 1-309, looked up)
chain: MNQPSSLAADLRGAWHAQAQSHPLITLGLAASAAGVVLLLVAGIVNALTGENRVHVGYAVLGGAAGFAATALGALMALGLRAISARTQDAMLGFAAGMMLAASAFSLILPGLDAAGTIVGPGPAAAAVVALGLGLGVLLMLGLDYFTPHEHERTGHQGPEAARVNRVWLFVLTIILHNLPEGMAIGVSFATGDLRIGLPLTSAIAIQDVPEGLAVALALRAVGLPIGRAVLVAVASGLMEPLGALVGVGISSGFALAYPISMGLAAGAMIFVVSHEVIPETHRNGHETTATVGLMAGFALMMFLDTALG
notes: Zrt-/Irt-like protein (ZIP) zinc transporter of Bordetella bronchiseptica, full length gene synthesized and cloned into pET15b; molecular weight 31 kDa; Membrane protein; purified with Cd2+ (CdCl2) present; three Cd2+ ions per protomer and two phosphatidylethanolamine lipids at the dimer in the cryo-EM structure; also called WT BbZIP; source: E. coli C43 (DE3), purified (Ni-NTA, thrombin …)
- stoichiometry N: 2
